± gives the uncertainty stated by the source.
Test: protein stability index of a GFP-peptide fusion (yeast GPS) (PSI 1-4); higher = more stable; sorted into four equal gates, so the index is relative within each strain
How it was run: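 Tiled 17-residue yeast protein peptides were fused downstream of GFP in a plasmid that also expresses Cherry, and the pooled library was carried in yeast. Mid-log cultures in leucine-free medium were sorted into four equal gates by GFP/Cherry fluorescence ratio, and plasmids from each gate were PCR-amplified and Illumina-sequenced, with reads assigned to strains by barcodes. The protein stability index for each peptide was each gate's read frequency times its gate number, summed.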

Sequence	protein stability index (doa10∆)	protein stability index (pdr5∆)	protein stability index (san1∆)	protein stability index (ubr1∆)
EDDTQIVTGNLVLDLLT [IRR1]	2.12 ± 0.055	2.83 ± 0.047	2.26 ± 0.085	2.26 ± 0.037
MDAYSTRPLTLSHGSLE [FAS1]	3.18 ± 0.11	3.15 ± 0.1	3.05 ± 0.093	3.3 ± 0.087
DGTGVRVIVAGTLDINP [FAS1]	2.36 ± 0.068	2.87 ± 0.071	2.99 ± 0.065	2.59 ± 0.061
ASINTSATVKTSDLLGS [ECM29]	3.24 ± 0.24	2.96 ± 0.21		3.25 ± 0.21
FQLPTTCVSMAPIQLKI [RGR1]	1.3 ± 0.051	1.76 ± 0.055	1.78 ± 0.06	1.67 ± 0.039
QLKMVNERELNVFARLS [RPC82]		2 ± 0.2		2.95 ± 0.12
LTSGLLYSYLIKENFFE [YJL039C/NUP192]	1.9 ± 0.1	1.74 ± 0.14	1.71 ± 0.12	1.2 ± 0.077
QPKDLRAKKTRALRRAL [RPL35A]				3.1 ± 0.15
SNGIFYGPSFTKRESLN [SIR2]	2.85 ± 0.065	2.83 ± 0.045	2.65 ± 0.056	3.07 ± 0.039
TQLKKRAVSGVELRIYV [POP7]	2.66 ± 0.13	2.23 ± 0.11	2.44 ± 0.14	2.78 ± 0.16
KIPILAQHESFLRQKIC [RPN9]	1.72 ± 0.046	2.06 ± 0.055	1.85 ± 0.076	2.14 ± 0.038
RLLITGTPLQNNLHELW [ISW2]	2.68 ± 0.066	2.61 ± 0.076	2.99 ± 0.062	2.83 ± 0.064
ARVILYLKNVLFAFNGV [SIN4]	2.38 ± 0.064	1.57 ± 0.06	1.42 ± 0.077	1.38 ± 0.042
RLTGSLLAHKVADEEAN [RPC37]	1.22 ± 0.057	1.32 ± 0.068	1.16 ± 0.12	1.06 ± 0.056
LSLQRANVEILAVEDKP [CSL4]	1.35 ± 0.054	1.44 ± 0.061	1.67 ± 0.092	1.61 ± 0.044
SILVIVQKILPLSNEVF [SWI1]	1.37 ± 0.045	1.34 ± 0.039	1.3 ± 0.073	1.56 ± 0.037
GTWSAKEAVFKSLGVKS [FAS2]	2.94 ± 0.088	3.34 ± 0.089	3.23 ± 0.1	2.88 ± 0.094
KLRARLVEYGFDPSRIK [SMC2]	2.73 ± 0.06	2.62 ± 0.092	2.33 ± 0.08	2.01 ± 0.034
SVDPQSSSTQNVFVILM [DIS3]	2.83 ± 0.16	2.43 ± 0.17	2.7 ± 0.075	2.92 ± 0.099
VISTIENVLFYIGRVNK [COB]	1.92 ± 0.069	1.89 ± 0.052	2.43 ± 0.058	2.62 ± 0.065
ISFLEPINLKFLQGESP [YMR129W/POM152]	2.6 ± 0.073	2.94 ± 0.11		2.67 ± 0.15
DPQHKAIRRDARYNWIC [RPL15A]	2.86 ± 0.088	3.31 ± 0.12	2.92 ± 0.16	3.11 ± 0.16
DHFIHLRNLHMKRMVAQ [SNF12]	2.78 ± 0.063	2.52 ± 0.083	2.77 ± 0.062	2.45 ± 0.047
FDVNNIDMHLIYGVEWL [YDL116W/NUP84]	2.12 ± 0.059	2.09 ± 0.049	1.92 ± 0.074	2.27 ± 0.044
DDIVSHQGTPLGSHSSS [REC8]	3.2 ± 0.15	3.37 ± 0.12	3.04 ± 0.16	3.3 ± 0.095
VMLRLLLVVIFKKTLRS [SRB4]	1.59 ± 0.068	1.56 ± 0.057	1.25 ± 0.098	1.23 ± 0.088

Sequence	protein stability index (doa10∆)	protein stability index (pdr5∆)	protein stability index (san1∆)	protein stability index (ubr1∆)
ENANAANNGAAFSPLTT [MED2]	3.1 ± 0.11	2.92 ± 0.1	2.88 ± 0.1	2.79 ± 0.057
NVPSTKFNAAPEENATE [SNF12]	3.21 ± 0.067	3.35 ± 0.07	3.17 ± 0.058	3.12 ± 0.055
NFKGLAKEKERMLEEAI [YIL149C/MLP2]	3.4 ± 0.095	3.56 ± 0.09	3.48 ± 0.071	3.38 ± 0.083
SVKEDVKNNQELDQEYR [SMC4]		3.53 ± 0.25		3.36 ± 0.14
KMYDYEEKEESNLAATK [RPN11]	3.17 ± 0.074	3.06 ± 0.082	2.87 ± 0.056	2.96 ± 0.1
KGVLLYGPPGTGKTLLA [RPT4]	2.51 ± 0.045	2.58 ± 0.041	2.57 ± 0.048	2.29 ± 0.035
NKIDQSLQYIERQQDEL [YJL041W/NSP1]	3.18 ± 0.15	3.19 ± 0.12	3.25 ± 0.096	2.93 ± 0.061
NENETRDKVCKQINEAR [PGD1]	3.14 ± 0.14	3.58 ± 0.19	3.28 ± 0.079	3.09 ± 0.1
GNRYLEKRLNLRVEHIK [RPL21A]	3.05 ± 0.077	2.96 ± 0.086	3.08 ± 0.075	3.05 ± 0.071
GDSGISPEESKARSPGI [SIR4]	3.52 ± 0.15			
PQQQQQHLQFNGSSDAS [YDL088C/ASM4]	2.41 ± 0.042	2.22 ± 0.048	2.04 ± 0.066	2.27 ± 0.03
ELEDVAVKKLYAIIINY [YCS4]	1.84 ± 0.057	1.97 ± 0.065	1.59 ± 0.12	1.44 ± 0.031
KCQTCQEGMNECPGHFG [RPO21]	3.34 ± 0.17	3.23 ± 0.094	3.51 ± 0.086	3.26 ± 0.091
VGGQFSKVQFDAKTSYP [REC8]	3.19 ± 0.095	3.17 ± 0.094	3 ± 0.077	3.19 ± 0.055
IAIIKDTSDIIVDPTAE [RRP46]	1.86 ± 0.044	1.92 ± 0.047	1.71 ± 0.078	1.61 ± 0.046
DEESLVKYMPEQKITEI [RPO21]	3.23 ± 0.12	2.94 ± 0.098	2.99 ± 0.1	3.12 ± 0.056
ILTSKVNAIKNEVKEWA [DSN1]	2.64 ± 0.09	2.66 ± 0.094	3.07 ± 0.072	2.82 ± 0.08
QQQQQQQQQQQNNSTGS [SSN2]	2.58 ± 0.06	2.78 ± 0.049	2.52 ± 0.11	2.85 ± 0.065
QQQQQQNNSTGSSSIIY [SSN2]	2.65 ± 0.07	2.99 ± 0.062	2.69 ± 0.091	2.79 ± 0.065
KVRLNASEREELALIEE [PRP8]	3.14 ± 0.17	2.89 ± 0.14	2.98 ± 0.12	
RAGVTIPSIPNPIANHT [SNF5]	2.46 ± 0.05	2.61 ± 0.039	2.43 ± 0.041	2.64 ± 0.031
DDTKETVYISSIALLKM [RPN11]	3.09 ± 0.087	2.77 ± 0.084	2.71 ± 0.048	2.93 ± 0.055
PSYYYYVDPETTYTYQQ [ROX3]	2.93 ± 0.075	3.09 ± 0.079	2.85 ± 0.053	3.16 ± 0.07
IDLLWKGKTPKNAAESS [PRP28]	2.86 ± 0.17	3.12 ± 0.18	2.91 ± 0.15	3.14 ± 0.13
DYMYENGKLTSANERLF [YML031W/NDC1]	3.37 ± 0.17	3.28 ± 0.11	3.1 ± 0.11	3.23 ± 0.095
DGIHYILNHIGQLTGIY [PRP8]	1.67 ± 0.065	1.55 ± 0.073	1.14 ± 0.12	1.67 ± 0.078

From the supplement of paper PMC9732359
